Experimental data taken from article PMC12650144, “Interactive Role of the DHPR β1a SH3 Domain in Skeletal Muscle Excitation–Contraction Coupling” (Biomolecules, 2025).

Columns and labels:
Assay in all cases: other fluorescence titration; tryptophan fluorescence quenching: intrinsic fluorescence of the β subunit or β1a-SH3 domain in the cuvette (sub-micromolar; 50 nM β1a-FL for the AID titration) monitored while titrating the II-III loop or peptides; excitation 280 nm, emission 340 nm; corrected for dilution and intrinsic fluorescence of the titrant; nonlinear regression
[1] = biological target: DHPR β1a subunit, full length (mouse) (UniProt Q8R3Z5)
[2] = biological target: DHPR β1a SH3 domain (β1a residues V101-P272) (mouse) (UniProt Q8R3Z5)
[3] = biological target: β1a/β2a RT loop chimera, HE to PG mutant (mouse)
[4] = biological target: β2a HE to PG mutant (mouse) (UniProt Q8CC27)

Chain of DHPR β1a subunit, full length (mouse) (Q8R3Z5 other isoform, or with tags, fused parts or gaps): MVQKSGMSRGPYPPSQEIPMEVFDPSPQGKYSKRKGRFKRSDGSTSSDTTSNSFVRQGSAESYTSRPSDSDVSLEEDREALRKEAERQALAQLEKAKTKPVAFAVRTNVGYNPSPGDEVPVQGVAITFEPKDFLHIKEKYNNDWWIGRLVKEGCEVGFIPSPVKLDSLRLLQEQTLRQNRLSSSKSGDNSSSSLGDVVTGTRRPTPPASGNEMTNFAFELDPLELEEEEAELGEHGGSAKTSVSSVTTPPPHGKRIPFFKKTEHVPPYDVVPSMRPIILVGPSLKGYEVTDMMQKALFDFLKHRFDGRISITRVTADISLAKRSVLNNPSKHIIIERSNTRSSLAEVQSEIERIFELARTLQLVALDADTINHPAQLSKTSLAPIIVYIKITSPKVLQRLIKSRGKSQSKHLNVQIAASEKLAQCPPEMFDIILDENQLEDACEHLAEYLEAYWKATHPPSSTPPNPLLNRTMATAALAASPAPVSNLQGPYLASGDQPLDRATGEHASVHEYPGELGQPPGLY
Chain of DHPR β1a SH3 domain (β1a residues V101-P272) (mouse) (Q8R3Z5 other isoform, or with tags, fused parts or gaps): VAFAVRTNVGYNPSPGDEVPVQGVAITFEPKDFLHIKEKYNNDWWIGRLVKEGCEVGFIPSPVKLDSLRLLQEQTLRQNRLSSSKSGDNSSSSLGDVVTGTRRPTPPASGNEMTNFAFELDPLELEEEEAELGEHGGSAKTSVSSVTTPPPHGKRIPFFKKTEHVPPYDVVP
Chain of α1s II–III loop C region peptide (residues 720–765) (P07293 720-765): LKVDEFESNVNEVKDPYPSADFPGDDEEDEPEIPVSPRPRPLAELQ

Substance	Kd [1] [µM]	Kd [2] [µM]	Kd [3] [µM]	Kd [4] [µM]
DHPR α1s I-II loop AID peptide	0.0152	–	–	–
sP1 A⟶P mutant (from UniProt P07293 733-745) (peptide)	4.5	2.3	–	–
α1s C binding peptide 2 (from UniProt P07293 748-764)	5.4	3.8	–	–
α1s II–III loop C region peptide (residues 720–765) (from UniProt P07293 720-765)	–	–	8.7	10.4

Further substances by falling Kd [1], results first:

Kd [1] [µM]	Kd [2] [µM]	Kd [3] [µM]	Kd [4] [µM]	Substance
22	19	–	–	sP1 P⟶T mutant (from UniProt P07293 733-745) (peptide)
15	17	–	–	sP1 D⟶E mutant (from UniProt P07293 733-745) (peptide)
4.6	4.6	–	–	sP1 F⟶T mutant (from UniProt P07293 733-745) (peptide)
3.6	2.6	–	–	α1s C binding peptide 1 (from UniProt P07293 733-745)
